Tests used:
[1] = target: recombinant soluble human CD4 (human, UniProt P01730); test: ELISA
[2] = target: recombinant soluble rhesus CD4 (Macaca mulatta (rhesus macaque), UniProt P16003); test: ELISA
Sequence of recombinant soluble rhesus CD4 (P16003 26-396): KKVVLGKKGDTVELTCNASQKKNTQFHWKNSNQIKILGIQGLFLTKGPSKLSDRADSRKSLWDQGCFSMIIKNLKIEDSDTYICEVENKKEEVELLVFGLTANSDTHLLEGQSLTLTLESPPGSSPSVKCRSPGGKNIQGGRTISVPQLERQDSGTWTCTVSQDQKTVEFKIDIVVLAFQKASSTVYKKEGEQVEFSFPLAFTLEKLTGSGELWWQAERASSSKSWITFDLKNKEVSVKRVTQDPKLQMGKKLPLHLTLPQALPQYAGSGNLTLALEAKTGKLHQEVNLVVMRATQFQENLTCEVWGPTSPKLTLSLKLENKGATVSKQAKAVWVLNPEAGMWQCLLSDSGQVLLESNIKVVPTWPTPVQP

B1: mAb 2D5 (anti-CD4 monoclonal antibody) (antibody, V domains shown)
VH: QVKLQQSGPELKKPGETVKISCKASGYTFTDYSMHWVKQAPGKGLKWLGRINTETGEAKYVDDFMGHLAFSLETSASTAYLQINNLKNEDTATYFCARYDGYSWDAMDYWGQGTSVIVSS
VL: DIMLTQSPASLTVSLGQRATMSCRASQSVSTSRYSYMHWYQEKAGQPPQLLIKYASNLESGVPARFSGSGSGTDFTLNIHPVEAEDTATYYCQHSWEIPYTFGGGTKLEIK
B1: binds [1]; binds [2].

From publication PMC4562469 (Science translational medicine, 2014)
